Measurements reported in paper doi:10.1101/2021.12.29.474402.

Target: SARS-CoV-2 Omicron (B.1.1.529) spike, prefusion-stabilized soluble trimeric ectodomain (S-trimer) (SARS-CoV-2 | bacteriophage T4) (UniProt P0DTC2)
Test: cryo-EM structure

Chain of human ACE2 (Q9BYF1 19-612): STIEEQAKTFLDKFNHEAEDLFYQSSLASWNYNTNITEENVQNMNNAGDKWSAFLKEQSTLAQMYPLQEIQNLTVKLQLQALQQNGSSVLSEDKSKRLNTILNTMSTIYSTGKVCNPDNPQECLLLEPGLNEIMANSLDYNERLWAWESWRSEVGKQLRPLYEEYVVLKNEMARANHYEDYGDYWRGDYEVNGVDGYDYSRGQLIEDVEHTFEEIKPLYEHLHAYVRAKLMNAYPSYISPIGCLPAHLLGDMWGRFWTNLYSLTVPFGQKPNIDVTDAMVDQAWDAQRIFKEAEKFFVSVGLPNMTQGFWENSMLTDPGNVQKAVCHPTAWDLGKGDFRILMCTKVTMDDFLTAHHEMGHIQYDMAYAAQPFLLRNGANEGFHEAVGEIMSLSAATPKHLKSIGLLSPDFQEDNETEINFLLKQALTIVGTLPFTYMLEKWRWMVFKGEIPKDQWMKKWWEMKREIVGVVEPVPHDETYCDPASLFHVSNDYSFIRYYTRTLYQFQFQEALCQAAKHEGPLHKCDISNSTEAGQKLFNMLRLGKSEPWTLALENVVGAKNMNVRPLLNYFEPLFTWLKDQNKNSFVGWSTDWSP

Q: How did the stoichiometry N (ACE2 per S-trimer) turn out when “human ACE2 (from UniProt Q9BYF1) (receptor)” was run?
A: 2
